Results from patent US20160075771A1 (ZESTAGEN S A, published 2016).

B1: monoclonal antibody (mAb) 4C5 (antibody, V domains shown)
VL: ELVMTQSPSSMYASLGERVTITCKASQDINSYLSWFQQKPGKSPKTLIYRANRLVDGVPSRFSGSGSGQDYSLTINSLEYEDMGIYYCLQYDEFPRLTFGAGTRLELKR
B2: human-mouse chimeric 4C5 antibody (antibody, V domains shown)
VL: B1 VL
B3: recombinant 4C5 (antibody, V domains shown)
VL: B1 VL

These binders were tested against surface HSP90 on MDAMB453 breast cancer cells (human, UniProt P07900 2-732) (assay: cell-based or functional assay).

| inhibition of wound closure, MDAMB453 in vitro wound healing assay, 200 µg/ml, 48 hours [%] | Binder |
| --- | --- |
| 55.3 | B1 |
| 51.2 | B2 |
| 46.5 | B3 |
